Columns and labels:
[1] = system: MS2 coat protein; experiment: apparent KD of MS2 coat protein, switch OFF state (with FMN for OFF switches, without FMN for ON switches); designed switch direction (-1 OFF switch, 1 ON switch): -1; higher = weaker reporter binding; details: FMN input: 0 or 200 uM; Eterna round: R93 (includes R88 designs)
In short: (§1)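 Normalised binding curves from single clusters were fitted, and the median fit for each design is given as apparent KD. The clusters held designed RNA switches transcribed on-chip from Illumina sequencing clusters. These were titrated with SNAP-549-labelled MS2 coat protein (twofold steps from 0.7 or 1.5 nM to 3 µM, 0.8–1.5 h to 10–20 min per step) in 100 mM Tris-HCl pH 7.5, 80 mM KCl, 4 mM MgCl2, without or with constant ligand.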

[2] = system: MS2 coat protein; experiment: apparent KD of MS2 coat protein, switch ON state; designed switch direction (-1 OFF switch, 1 ON switch): -1; higher = weaker reporter binding; details: FMN input: 0 or 200 uM; Eterna round: R93 (includes R88 designs)
In short: as §1

| Sequence | apparent KD of MS2 coat protein [1] [nM] | apparent KD of MS2 coat protein [2] [nM] |
| --- | --- | --- |
| AAGAAGCUAGGAUAUACUUGGGCAACAAAUAAACUAAUAUAACAUGAGGAUCACCCAUGUAGAAGGAGCAGAAA [JR_Exc002_Sub205] | 39.8 | 39.7 |
| AGAAAGUCAGGAUAUGCAGAUAAAAAAACGAAAAAAAAUCUGCAGAAGGGACAUGAGGAUCACCCAUGUAAAGA [Mat - Exclusion 4 - Mayanna - D111] | 40.2 | 52.3 |
| AGGGUACAUGAGGAUCACCCAUGUUAGGAUAUUGAAAAGAAAAGAAAAGAAAGAAGAACAAGAAGGGACAAGAA [Userkare] | 45.7 | 56.5 |
| AAAUUGUCAGGAUAUCGUAGAACAGGGAAAACCUGGAGCUACGAGAAGGGACAUGAGGAUCACCCAUGUAAAAC [May 93] | 71.1 | 62.7 |
| AAGGUACGAGGAUAUACAUAGAUACAGACACAUGUUCAUGUACAUGAGGAUCACCCAUGUAGAAGGCGUAUAUA [AJ 17] | 147 | 56.7 |
| AAAUAGUUAGGAUAUACAUGAGGAUCACCCAUGUGCACUUAUGGAGAAUAGGGUAAUGGUAGAAGGGACUAAAA [EX2 Malc#21] | 39.7 | 36.2 |
| AAGAAACAUGAGGAUCACCCAUGUCAGGAUAUGCAAAACUGACGAAAGUCAGAAGAAAGCAGAAGGGACUAGAA [5-pair stack] | 52 | 29.1 |
| CGCAAGUCAGGAUAUUCGACAAGUAAAUCAGUAGAUCAAAAGAAGAAGGGACAUGAGGAUCACCCAUGUAAAUA [JR_Exc004_Sub403] | 26 | 40 |
| CCCUCACAUGAGGAUCACCCAUGUGAGGAUAUGCAUAAAAAAAAAAAAAAAAAAAAAUGCAGAAGGCACAUGAA [jn_irvington] | 11.1 | 13 |
| AGUUGGCGAGGAUAUACAUGAGGAUCACCCAUGUGAAAUCGCGAAAAAAUAGGGAAAAGUAGAAGGCGCUGACA [73%, Moding Norbert Elias, 18] | 21 | 11 |
| CAGUACUGAGGAUAUACAUGAGGAUCACCCAUGUGUUCCAGCUAGGAAACUAGCACAUGUAGAAGGCAGUACUG [Ex3: 826] | 16.8 | 187 |
| AAUAAACAUGAGGAUCACCCAUGUGAGGAUAUGGUAUAAUAAGGACAGUAAUGAUAAACCAGAAGGCACAAAUA [JR_Exc001_Sub1102] | 34.7 | 30.5 |
| GGAUGCGAAGGAUAUACAUGAGGAUCACCCAUGUGAGAGAAAAAAGUGAGAAAGAAAAGUAGAAGGUCGUGUCG [salish99-ex3-93] | 97.2 | 28.8 |
| AAAUAGCAAGGAUAUACAUGAGGAUCACCCAUGUAAAAAUGGAAAGUAAAAGAAUAAAGUAGAAGGUGCAAAUA [Ex 3 Tesla 2] | 36.9 | 20.6 |
| AAAAAGUAAGGAUAUACAAAAGAAAACACAAAAAAAAAAAAACAUGAGGAUCACCCAUGUAGAAGGUACAAAAA [Ex2 Malc#1] | 19.3 | 27.3 |
| AAAAAUGGAGGAUAUACAUGAGGAUCACCCAUGUUAGACCUAAAAAAAGGGAAAGAAAGUAGAAGGCCAUAAAA [Ex 3 May 29] | 20.6 | 17.5 |
| GGUUGGCGAGGAUAUACAUGAGGAUCACCCAUGUGAGAGAAAAAAGAGAGAAAGAAAAGUAGAAGGCGCUGACG [salish99-ex3-52] | 97.8 | 47.9 |

Source: the supplement of paper PMC9170038
